Data on five sequences can be found in the supplement of paper PMC5998384.

Series [1] concerns HeLa Kyoto. In words: thermal stability score vs G1/S (z-score of summed log2 fold changes over temperatures); higher = more thermally stable than in G1/S.
The subject of series [2] is HeLa Kyoto. In words: solubility in G1/S (NP-40 vs SDS abundance) (log2 ratio); higher = more soluble. As to conditions: cell cycle stage: G1/S.
Series [3] has as its system HeLa Kyoto. In words: melting temperature (median over replicates), in situ; higher = more thermally stable.
In series [4] the test system is HeLa Kyoto. In words: solubility change mitosis vs G1/S (difference of NP-40 vs SDS log2 ratios) (log2 ratio difference); higher = more soluble in mitosis.
The mark [5] stands for this setting: cell cycle stage: early G1 (4.5 h after nocodazole release).
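For melting temperature (median over replicates), in situ in this document: HeLa Kyoto cells synchronized by double thymidine or nocodazole block, proteins quantified by TMT10plex mass spectrometry, three independent biological replicates.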
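For solubility change mitosis vs G1/S (difference of NP-40 vs SDS log2 ratios) in this document: synchronized HeLa Kyoto cells (double thymidine block for G1/S, nocodazole release for mitosis), protein amounts in NP-40 versus SDS lysates quantified by mass spectrometry, three biological replicates.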
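For solubility in G1/S (NP-40 vs SDS abundance) in this document: HeLa Kyoto cells arrested at G1/S by double thymidine block, proteins quantified by TMT10plex mass spectrometry in mild NP-40 versus SDS extracts, three biological replicates.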
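For thermal stability score vs G1/S (z-score of summed log2 fold changes over temperatures) in this document: synchronized HeLa Kyoto cells, proteins quantified by TMT10plex mass spectrometry, three biological replicates, mitosis taken 0.5 h after nocodazole release, G1/S directly after double thymidine block.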

With “MNSSTSTMSEEPDALSVVNQLRDLAADPLNRRAIVQDQGCLPGLILFMDHPNPPVVHSALLALRYLAECRANREKMKGELGMMLSLQNVIQKTTTPGETKLLASEIYDILQSSNMADGDSFNEMNSRRRKAQFFLGTTNKRAKTVVLHIDGLDDTSRRNLCEEALLKIKGVISFTFQMAVQRCVVRIRSDLKAEALASAIASTKVMKAQQVVKSESGEEMLVPFQDTPVEVEQNTELPDYLPEDESPTKEQDKAVSRVGSHPEGGASWLSTAANFLSRSFYW [ARMC1]”, the values for the thermal stability score in the series with HeLa Kyoto [1] (setting [5]) and in the series with HeLa Kyoto [1] (cell cycle stage: mitosis) were 0.134 and 0.316, respectively. Besides, in the series on HeLa Kyoto [2], the “solubility in G1/S (log2)” value was found to be 0.386. Moreover, the melting temperature in the series on HeLa Kyoto [3] (cell cycle stage: G1/S) was determined as 50.6 °C; with HeLa Kyoto [3] (cell cycle stage: mitosis) it was 50.8 °C. The “solubility change mitosis (log2)” value in the series with HeLa Kyoto [4] came to 0.0691.

“MNTAPSRPSPTRRDPYGFGDSRDSRRDRSPIRGSPRREPRDGRNGRDARDSRDIRDPRDLRDHRHSRDLRDHRDSRSVRDVRDVRDLRDFRDLRDSRDFRDQRDPMYDRYRDMRDSRDPMYRREGSYDRYLRMDDYCRRKDDSYFDRYRDSFDGRGPPGPESQSRAKERLKREERRREELYRQYFEEIQRRFDAERPVDCSVIVVNKQTKDYAESVGRKVRDLGMVVDLIFLNTEVSLSQALEDVSRGGSPFAIVITQQHQIHRSCTVNIMFGTPQEHRNMPQADAMVLVARNYERYKNECREKEREEIARQAAKMADEAILQERERGGPEEGVRGGHPPAIQSLINLLADNRYLTAEETDKIINYLRERKERLMRSSTDSLPGPISRQPLGATSGASLKTQPSSQPLQSGQVLPSATPTPSAPPTSQQELQAKILSLFNSGTVTANSSSASPSVAAGNTPNQNFSTAANSQPQQRSQASGNQPPSILGQGGSAQNMGPRPGAPSQGLFGQPSSRLAPASNMTSQRPVSSTGINFDNPSVQKALDTLIQSGPALSHLVSQTTAQMGQPQAPMGSYQRHY [NCOA5]”: the thermal stability score stood at 0.658 in the series with HeLa Kyoto [1] (setting [5]) and 1.68 in the series with HeLa Kyoto [1] (cell cycle stage: mitosis). Besides, the “solubility in G1/S (log2)” value in the series with HeLa Kyoto [2] was -0.619. Further, the melting temperature in the series on HeLa Kyoto [3] (cell cycle stage: G1/S) worked out at 49.9 °C; with HeLa Kyoto [3] (cell cycle stage: mitosis), 49.1 °C. Also, the “solubility change mitosis (log2)” value with HeLa Kyoto [4] worked out at 0.489.

With “MNTEAEQQLLHHARNGNAEEVRQLLETMARNEVIADINCKGRSKSNLGWTPLHLACYFGHRQVVQDLLKAGAEVNVLNDMGDTPLHRAAFTGRKELVMLLLEYNADTTIVNGSGQTAKEVTHAEEIRSMLEAVERTQQRKLEELLLAAAREGKTTELTALLNRPNPPDVNCSDQLGNTPLHCAAYRAHKQCALKLLRSGADPNLKNKNDQKPLDLAQGAEMKHILVGNKVIYKALKRYEGPLWKSSRFFGWRLFWVVLEHGVLSWYRKQPDAVHNIYRQGCKHLTQAVCTVKSTDSCLFFIKCFDDTIHGFRVPKNSLQQSREDWLEAIEEHSAYSTHYCSQDQLTDEEEEDTVSAADLKKSLEKAQSCQQRLDREISNFLKMIKECDMAKEMLPSFLQKVEVVSEASRETCVALTDCLNLFTKQEGVRNFKLEQEQEKNKILSEALETLATEHHELEQSLVKGSPPASILSEDEFYDALSDSESERSLSRLEAVTARSFEEEGEHLGSRKHRMSEEKDCGGGDALSNGIKKHRTSLPSPMFSRNDFSIWSILRKCIGMELSKITMPVIFNEPLSFLQRLTEYMEHTYLIHKASSLSDPVERMQCVAAFAVSAVASQWERTGKPFNPLLGETYELVRDDLGFRLISEQVSHHPPISAFHAEGLNNDFIFHGSIYPKLKFWGKSVEAEPKGTITLELLEHNEAYTWTNPTCCVHNIIVGKLWIEQYGNVEIINHKTGDKCVLNFKPCGLFGKELHKVEGYIQDKSKKKLCALYGKWTECLYSVDPATFDAYKKNDKKNTEEKKNSKQMSTSEELDEMPVPDSESVFIIPGSVLLWRIAPRPPNSAQMYNFTSFAMVLNEVDKDMESVIPKTDCRLRPDIRAMENGEIDQASEEKKRLEEKQRAARKNRSKSEEDWKTRWFHQGPNPYNGAQDWIYSGSYWDRNYFNLPDIY [OSBPL1A]”, the thermal stability score with HeLa Kyoto [1] (setting [5]) is -0.0179; in the series on HeLa Kyoto [1] (cell cycle stage: mitosis) it was -0.158. Also, the “solubility in G1/S (log2)” value in the series with HeLa Kyoto [2] turned out to be 0.0257. For the same sequence, the melting temperature with HeLa Kyoto [3] (cell cycle stage: G1/S) and in the series with HeLa Kyoto [3] (cell cycle stage: mitosis) was 51 °C each time. In addition, the “solubility change mitosis (log2)” value with HeLa Kyoto [4] is -0.0641.

Consider “MNTVLSRANSLFAFSLSVMAALTFGCFITTAFKDRSVPVRLHVSRIMLKNVEDFTGPRERSDLGFITFDITADLENIFDWNVKQLFLYLSAEYSTKNNALNQVVLWDKIVLRGDNPKLLLKDMKTKYFFFDDGNGLKGNRNVTLTLSWNVVPNAGILPLVTGSGHVSVPFPDTYEITKSY [SPCS3]”, for which the thermal stability score is 0.503 with HeLa Kyoto [1] (setting [5]) and 1.67 in the series on HeLa Kyoto [1] (cell cycle stage: mitosis). Further, the “solubility in G1/S (log2)” value in the series with HeLa Kyoto [2] came out at 0.0331. In addition, the melting temperature with HeLa Kyoto [3] (cell cycle stage: G1/S) stood at 53.5 °C; in the series on HeLa Kyoto [3] (cell cycle stage: mitosis) it was 53.8 °C. Further, the “solubility change mitosis (log2)” value with HeLa Kyoto [4] is -0.0576.

Regarding “MNVTPEVKSRGMKFAEEQLLKHGWTQGKGLGRKENGITQALRVTLKQDTHGVGHDPAKEFTNHWWNELFNKTAANLVVETGQDGVQIRSLSKETTRYNHPKPNLLYQKFVKMATLTSGGEKPNKDLESCSDDDNQGSKSPKILTDEMLLQACEGRTAHKAARLGITMKAKLARLEAQEQAFLARLKGQDPGAPQLQSESKPPKKKKKKRRQKEEEEATASERNDADEKHPEHAEQNIRKSKKKKRRHQEGKVSDEREGTTKGNEKEDAAGTSGLGELNSREQTNQSLRKGKKKKRWHHEEEKMGVLEEGGKGKEAAGSVRTEEVESRAYADPCSRRKKRQQQEEEDLNLEDRGEETVLGGGTREAESRACSDGRSRKSKKKRQQHQEEEDILDVRDEKDGGAREAESRAHTGSSSRGKRKRQQHPKKERAGVSTVQKAKKKQKKRD [GPATCH4]”, the thermal stability score with HeLa Kyoto [1] (setting [5]) is 1.12; in the series on HeLa Kyoto [1] (cell cycle stage: mitosis), 2.93. Moreover, the “solubility in G1/S (log2)” value in the series on HeLa Kyoto [2] is -1.28. Also, the melting temperature turned out to be 47.5 °C in the series with HeLa Kyoto [3] (cell cycle stage: G1/S) and 48.6 °C in the series on HeLa Kyoto [3] (cell cycle stage: mitosis). Besides, the “solubility change mitosis (log2)” value in the series with HeLa Kyoto [4] is 0.885.
